# Assay results reported in the supplement of paper PMC5998384.
# Tests used:
# HeLa Kyoto [1] = experiment: solubility change mitosis vs G1/S (difference of NP-40 vs SDS log2 ratios) (log2 ratio difference); higher = more soluble in mitosis
# HeLa Kyoto [2] = experiment: solubility in G1/S (NP-40 vs SDS abundance) (log2 ratio); higher = more soluble; settings: cell cycle stage: G1/S
# 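For solubility change mitosis vs G1/S (difference of NP-40 vs SDS log2 ratios) in this document: synchronized HeLa Kyoto cells (double thymidine block for G1/S, nocodazole release for mitosis), protein amounts in NP-40 versus SDS lysates quantified by mass spectrometry, three biological replicates.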
# 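For solubility in G1/S (NP-40 vs SDS abundance) in this document: HeLa Kyoto cells arrested at G1/S by double thymidine block, proteins quantified by TMT10plex mass spectrometry in mild NP-40 versus SDS extracts, three biological replicates.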
Substance,solubility change mitosis (log2) (HeLa Kyoto [1]),solubility in G1/S (log2) (HeLa Kyoto [2])
MKLHYVAVLTLAILMFLTWLPESLSCNKALCASDVSKCLIQELCQCRPGEGNCSCCKECMLCLGALWDECCDCVGMCNPRNYSDTPPTSKSTVEELHEPIPSLFRALTEGDTQLNWNIVSFPVAEELSHHENLVSFLETVNQPHHQNVSVPSNNVHAPYSSDKEHMCTVVYFDDCMSIHQCKISCESMGASKYRWFHNACCECIGPECIDYGSKTVKCMNCMF [TWSG1],-0.383,0.0362
MAPVRRSAKWRPGGIEARGEGVSTVGYRNKNVRQKTWRPNHPQAFVGSVREGQGFAFRRKLKIQQSYKKLLRKEKKAQTSLESQFTDRYPDNLKHLYLAEEERHRKQARKVDHPLSEQVHQPLLEEQCSIDEPLFEDQCSFDQPQPEEQCIKTVNSFTIPKKNKKKTSNQKAQEEYEQIQAKRAAKKQEFERRKQEREEAQRQYKKKKMEVFKILNKKTKKGQPNLNVQMEYLLQKIQEKC [CCDC59],0.278,-0.512
MDVDAEREKITQEIKELERILDPGSSGSHVEISESSLESDSEADSLPSEDLDPADPPISEEERWGEASNDEDDPKDKTLPEDPETCLQLNMVYQEVIQEKLAEANLLLAQNREQQEELMRDLAGSKGTKVKDGKSLPPSTYMGHFMKPYFKDKVTGVGPPANEDTREKAAQGIKAFEELLVTKWKNWEKALLRKSVVSDRLQRLLQPKLLKLEYLHQKQSKVSSELERQALEKQGREAEKEIQDINQLPEEALLGNRLDSHDWEKISNINFEGSRSAEEIRKFWQNSEHPSINKQEWSREEEERLQAIAAAHGHLEWQKIAEELGTSRSAFQCLQKFQQHNKALKRKEWTEEEDRMLTQLVQEMRVGSHIPYRRIVYYMEGRDSMQLIYRWTKSLDPGLKKGYWAPEEDAKLLQAVAKYGEQDWFKIREEVPGRSDAQCRDRYLRRLHFSLKKGRWNLKEEEQLIELIEKYGVGHWAKIASELPHRSGSQCLSKWKIMMGKKQGLRRRRRRARHSVRWSSTSSSGSSSGSSGGSSSSSSSSSEEDEPEQAQAGEGDRALLSPQYMVPDMDLWVPARQSTSQPWRGGAGAWLGGPAASLSPPKGSSASQGGSKEASTTAAAPGEETSPVQVPARAHGPVPRSAQASHSADTRPAGAEKQALEGGRRLLTVPVETVLRVLRANTAARSCTQKEQLRQPPLPTSSPGVSSGDSVARSHVQWLRHRATQSGQRRWRHALHRRLLNRRLLLAVTPWVGDVVVPCTQASQRPAVVQTQADGLREQLQQARLASTPVFTLFTQLFHIDTAGCLEVVRERKALPPRLPQAGARDPPVHLLQASSSAQSTPGHLFPNVPAQEASKSASHKGSRRLASSRVERTLPQASLLASTGPRPKPKTVSELLQEKRLQEARAREATRGPVVLPSQLLVSSSVILQPPLPHTPHGRPAPGPTVLNVPLSGPGAPAAAKPGTSGSWQEAGTSAKDKRLSTMQALPLAPVFSEAEGTAPAASQAPALGPGQISVSCPESGLGQSQAPAASRKQGLPEAPPFLPAAPSPTPLPVQPLSLTHIGGPHVATSVPLPVTWVLTAQGLLPVPVPAVVSLPRPAGTPGPAGLLATLLPPLTETRAAQGPRAPALSSSWQPPANMNREPEPSCRTDTPAPPTHALSQSPAEADGSVAFVPGEAQVAREIPEPRTSSHADPPEAEPPWSGRLPAFGGVIPATEPRGTPGSPSGTQEPRGPLGLEKLPLRQPGPEKGALDLEKPPLPQPGPEKGALDLGLLSQEGEAATQQWLGGQRGVRVPLLGSRLPYQPPALCSLRALSGLLLHKKALEHKATSLVVGGEAERPAGALQASLGLVRGQLQDNPAYLLLRARFLAAFTLPALLATLAPQGVRTTLSVPSRVGSESEDEDLLSELELADRDGQPGCTTATCPIQGAPDSGKCSASSCLDTSNDPDDLDVLRTRHARHTRKRRRLV [SNAPC4],-0.0345,0.0147
MPAGGRAGSLKDPDVAELFFKDDPEKLFSDLREIGHGSFGAVYFARDVRNSEVVAIKKMSYSGKQSNEKWQDIIKEVRFLQKLRHPNTIQYRGCYLREHTAWLVMEYCLGSASDLLEVHKKPLQEVEIAAVTHGALQGLAYLHSHNMIHRDVKAGNILLSEPGLVKLGDFGSASIMAPANSFVGTPYWMAPEVILAMDEGQYDGKVDVWSLGITCIELAERKPPLFNMNAMSALYHIAQNESPVLQSGHWSEYFRNFVDSCLQKIPQDRPTSEVLLKHRFVLRERPPTVIMDLIQRTKDAVRELDNLQYRKMKKILFQEAPNGPGAEAPEEEEEAEPYMHRAGTLTSLESSHSVPSMSISASSQSSSVNSLADASDNEEEEEEEEEEEEEEEGPEAREMAMMQEGEHTVTSHSSIIHRLPGSDNLYDDPYQPEITPSPLQPPAAPAPTSTTSSARRRAYCRNRDHFATIRTASLVSRQIQEHEQDSALREQLSGYKRMRRQHQKQLLALESRLRGEREEHSARLQRELEAQRAGFGAEAEKLARRHQAIGEKEARAAQAEERKFQQHILGQQKKELAALLEAQKRTYKLRKEQLKEELQENPSTPKREKAEWLLRQKEQLQQCQAEEEAGLLRRQRQYFELQCRQYKRKMLLARHSLDQDLLREDLNKKQTQKDLECALLLRQHEATRELELRQLQAVQRTRAELTRLQHQTELGNQLEYNKRREQELRQKHAAQVRQQPKSLKVRAGQRPPGLPLPIPGALGPPNTGTPIEQQPCSPGQEAVLDQRMLGEEEEAVGERRILGKEGATLEPKQQRILGEESGAPSPSPQKHGSLVDEEVWGLPEEIEELRVPSLVPQERSIVGQEEAGTWSLWGKEDESLLDEEFELGWVQGPALTPVPEEEEEEEEGAPIGTPRDPGDGCPSPDIPPEPPPTHLRPCPASQLPGLLSHGLLAGLSFAVGSSSGLLPLLLLLLLPLLAAQGGGGLQAALLALEVGLVGLGASYLLLCTALHLPSSLFLLLAQGTALGAVLGLSWRRGLMGVPLGLGAAWLLAWPGLALPLVAMAAGGRWVRQQGPRVRRGISRLWLRVLLRLSPMAFRALQGCGAVGDRGLFALYPKTNKDGFRSRLPVPGPRRRNPRTTQHPLALLARVWVLCKGWNWRLARASQGLASHLPPWAIHTLASWGLLRGERPTRIPRLLPRSQRQLGPPASRQPLPGTLAGRRSRTRQSRALPPWR [TAOK2],-0.0236,-0.239
MSMILSASVIRVRDGLPLSASTDYEQSTGMQECRKYFKMLSRKLAQLPDRCTLKTGHYNINFISSLGVSYMMLCTENYPNVLAFSFLDELQKEFITTYNMMKTNTAVRPYCFIEFDNFIQRTKQRYNNPRSLSTKINLSDMQTEIKLRPPYQISMCELGSANGVTSAFSVDCKGAGKISSAHQRLEPATLSGIVGFILSLLCGALNLIRGFHAIESLLQSDGDDFNYIIAFFLGTAACLYQCYLLVYYTGWRNVKSFLTFGLICLCNMYLYELRNLWQLFFHVTVGAFVTLQIWLRQAQGKAPDYDV [SEC22A],-0.0544,-0.17
ALMS1,0.225,0.395
CENPE,-0.1,-0.0612
MAAAFRKAAKSRQREHRERSQPGFRKHLGLLEKKKDYKLRADDYRKKQEYLKALRKKALEKNPDEFYYKMTRVKLQDGVHIIKETKEEVTPEQLKLMRTQDVKYIEMKRVAEAKKIERLKSELHLLDFQGKQQNKHVFFFDTKKEVEQFDVATHLQTAPELVDRVFNRPRIETLQKEKVKGVTNQTGLKRIAKERQKQYNCLTQRIEREKKLFVIAQKIQTRKDLMDKTQKVKVKKETVNSPAIYKFQSRRKR [UTP11L],1.5,-2.71
MNSVGEACTDMKREYDQCFNRWFAEKFLKGDSSGDPCTDLFKRYQQCVQKAIKEKEIPIEGLEFMGHGKEKPENSS [TRIAP1],0.6,-0.88
MFPVFPCTLLAPPFPVLGLDSRGVGGLMNSFPPPQGHAQNPLQVGAELQSRFFASQGCAQSPFQAAPAPPPTPQAPAAEPLQVDLLPVLAAAQESAAAAAAAAAAAAAVAAAPPAPAAASTVDTAALKQPPAPPPPPPPVSAPAAEAAPPASAATIAAAAATAVVAPTSTVAVAPVASALEKKTKSKGPYICALCAKEFKNGYNLRRHEAIHTGAKAGRVPSGAMKMPTMVPLSLLSVPQLSGAGGGGGEAGAGGGAAAVAAGGVVTTTASGKRIRKNHACEMCGKAFRDVYHLNRHKLSHSDEKPYQCPVCQQRFKRKDRMSYHVRSHDGAVHKPYNCSHCGKSFSRPDHLNSHVRQVHSTERPFKCEKCEAAFATKDRLRAHTVRHEEKVPCHVCGKMLSSAYISDHMKVHSQGPHHVCELCNKGTGEVCPMAAAAAAAAAAAAAAVAAPPTAVGSLSGAEGVPVSSQPLPSQPW [MAZ],0.19,0.0657
MNRIRIHVLPTNRGRITPVPRSQEPLSCAFTHRPCSHPRLEGQEFCIKHILEDKNAPFKQCSYISTKNGKRCPNAAPKPEKKDGVSFCAEHVRRNALALHAQMKKTNPGPVGETLLCQLSSYAKTELGSQTPESSRSEASRILDEDSWSDGEQEPITVDQTWRGDPDSEADSIDSDQEDPLKHAGVYTAEEVALIMREKLIRLQSLYIDQFKRLQHLLKEKKRRYLHNRKVEHEALGSSLLTGPEGLLAKERENLKRLKCLRRYRQRYGVEALLHRQLKERRMLATDGAAQQAHTTRSSQRCLAFVDDVRCSNQSLPMTRHCLTHICQDTNQVLFKCCQGSEEVPCNKPVPVSLSEDPCCPLHFQLPPQMYKPEQVLSVPDDLEAGPMDLYLSAAELQPTESLPLEFSDDLDVVGDGMQCPPSPLLFDPSLTLEDHLVKEIAEDPVDILGQMQMAGDGCRSQGSRNSEKASAPLSQSGLATANGKPEPTSIS [KANSL2],-0.0302,0.453
MFQASMRSPNMEPFKQQKVEDFYDIGEELGSGQFAIVKKCREKSTGLEYAAKFIKKRQSRASRRGVSREEIEREVSILRQVLHHNVITLHDVYENRTDVVLILELVSGGELFDFLAQKESLSEEEATSFIKQILDGVNYLHTKKIAHFDLKPENIMLLDKNIPIPHIKLIDFGLAHEIEDGVEFKNIFGTPEFVAPEIVNYEPLGLEADMWSIGVITYILLSGASPFLGDTKQETLANITAVSYDFDEEFFSQTSELAKDFIRKLLVKETRKRLTIQEALRHPWITPVDNQQAMVRRESVVNLENFRKQYVRRRWKLSFSIVSLCNHLTRSLMKKVHLRPDEDLRNCESDTEEDIARRKALHPRRRSSTS [DAPK2],-0.115,0.203
